In data set [1] the target is ABL (UniProt P00519).
Data set [2] has as its target BRD4 (UniProt O60885).
Data set [3] concerns the target BTK (UniProt Q06187).

BTK, sequence (Q06187 whole entry): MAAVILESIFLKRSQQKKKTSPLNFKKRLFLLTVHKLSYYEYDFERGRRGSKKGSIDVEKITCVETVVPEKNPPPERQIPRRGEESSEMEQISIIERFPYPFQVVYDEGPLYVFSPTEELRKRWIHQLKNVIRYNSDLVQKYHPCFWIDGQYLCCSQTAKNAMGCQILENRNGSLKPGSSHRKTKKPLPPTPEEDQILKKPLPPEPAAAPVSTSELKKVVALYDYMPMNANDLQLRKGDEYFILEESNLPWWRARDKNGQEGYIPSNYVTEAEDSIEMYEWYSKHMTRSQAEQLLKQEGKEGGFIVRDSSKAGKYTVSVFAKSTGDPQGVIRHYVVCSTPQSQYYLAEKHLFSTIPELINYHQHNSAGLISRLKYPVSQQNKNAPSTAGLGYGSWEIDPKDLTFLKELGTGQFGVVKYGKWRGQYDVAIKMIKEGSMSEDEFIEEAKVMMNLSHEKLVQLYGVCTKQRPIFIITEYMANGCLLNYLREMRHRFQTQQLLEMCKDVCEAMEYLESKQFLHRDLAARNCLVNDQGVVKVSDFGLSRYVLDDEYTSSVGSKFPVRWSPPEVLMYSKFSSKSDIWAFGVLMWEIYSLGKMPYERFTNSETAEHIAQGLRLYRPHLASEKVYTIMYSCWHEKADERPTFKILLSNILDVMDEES
ABL, sequence (P00519 whole entry): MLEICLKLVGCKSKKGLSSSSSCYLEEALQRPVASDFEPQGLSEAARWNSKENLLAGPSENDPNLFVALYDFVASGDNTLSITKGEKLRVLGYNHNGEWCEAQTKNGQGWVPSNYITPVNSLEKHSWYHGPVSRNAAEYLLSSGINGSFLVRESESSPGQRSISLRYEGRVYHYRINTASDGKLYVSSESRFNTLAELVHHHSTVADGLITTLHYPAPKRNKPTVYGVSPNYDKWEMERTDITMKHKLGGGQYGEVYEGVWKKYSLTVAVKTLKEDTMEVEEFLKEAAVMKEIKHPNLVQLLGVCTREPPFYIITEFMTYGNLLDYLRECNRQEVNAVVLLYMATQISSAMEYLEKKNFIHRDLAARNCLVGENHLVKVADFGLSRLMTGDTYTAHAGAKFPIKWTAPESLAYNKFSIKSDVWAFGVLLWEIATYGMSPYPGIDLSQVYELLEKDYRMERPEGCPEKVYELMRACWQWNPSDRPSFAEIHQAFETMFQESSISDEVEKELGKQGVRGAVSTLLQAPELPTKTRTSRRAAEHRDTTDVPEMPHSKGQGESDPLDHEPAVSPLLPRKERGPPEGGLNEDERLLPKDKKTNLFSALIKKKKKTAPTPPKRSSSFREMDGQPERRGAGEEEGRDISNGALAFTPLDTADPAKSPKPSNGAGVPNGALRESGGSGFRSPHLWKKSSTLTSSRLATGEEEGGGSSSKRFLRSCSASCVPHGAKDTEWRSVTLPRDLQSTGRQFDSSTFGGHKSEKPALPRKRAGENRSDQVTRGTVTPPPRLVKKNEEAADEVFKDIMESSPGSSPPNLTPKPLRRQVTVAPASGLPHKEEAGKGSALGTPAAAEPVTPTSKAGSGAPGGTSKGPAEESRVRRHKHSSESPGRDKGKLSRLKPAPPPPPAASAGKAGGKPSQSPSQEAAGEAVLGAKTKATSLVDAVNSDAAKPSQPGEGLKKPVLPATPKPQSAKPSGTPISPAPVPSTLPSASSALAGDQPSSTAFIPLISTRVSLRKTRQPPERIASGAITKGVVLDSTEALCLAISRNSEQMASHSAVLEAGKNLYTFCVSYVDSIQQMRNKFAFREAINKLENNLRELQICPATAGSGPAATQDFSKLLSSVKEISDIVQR

PKC: in data set [1], the “phosphorylation of ABL by PKC in vitro, with PHICS5” value is “An ABL-targeting PHICS5 formed using dihydropyrazole core also induced phosphorylation of ABL, compare to DMSO or activator VS1012 treated controls” and the “phosphorylation of ABL by PKC in vitro, with VS558” value was “bifunctional molecule VS558 based on a known inhibitor dasatinib, that binds to a different pocket of ABL kinase [16], also induced its phosphorylation by PKC in vitro”. In addition, in data set [2], the “phosphorylation of BRD4 by PKC in vitro, with PHICS4” value is on record as “BRD4 phosphorylation was detected in the presence of PHICS4” and the “phosphorylation of BRD4 by PKC in vitro, with the chimeric molecule made from (R)-JQ1” value was “absence of phosphorylation when a chimeric molecule generated from the inactive enantiomer of (S)-JQ1 [i.e., (R)-JQ1] was used”. Also, in data set [3], the “phosphorylation of BTK by PKC in vitro, with PHICS6 (PKC-motif antibody)” value was “the degree of phosphorylation was higher in the presence of PHICS6”; the “phosphorylation of BTK by PKC in vitro, with the inactive analog iPHICS6” value was “the inactive PHICS analogs lowered phosphorylation induction”; the “phosphorylation of BTK by PKC in vitro, without PHICS (PKC-motif antibody)” value is “some phosphorylation of BTK by PKC was observed in the absence of PHICS (quantified using PKC-motif antibody)”.

(Values after patent US20240024490.)
